From PMC6450391 (Nature immunology, 2019) come the findings set out here.

This experiment concerns the target T1, 1CARD-SUMO (caspase-1 CARD with carboxy-terminal SUMO, after TEV cleavage of MBP-1CARD-SUMO) (human, UniProt P29466 1-91).
T1 sequence (looked up): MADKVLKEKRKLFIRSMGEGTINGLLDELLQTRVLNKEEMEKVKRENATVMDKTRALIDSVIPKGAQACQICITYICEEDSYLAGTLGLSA
Put plainly: cross-linking.

B1: SERPINB1, purified, amino-terminal SUMO cleaved (natural protein, human, UniProt P30740 1-379, looked up)
chain: MEQLSSANTRFALDLFLALSENNPAGNIFISPFSISSAMAMVFLGTRGNTAAQLSKTFHFNTVEEVHSRFQSLNADINKRGASYILKLANRLYGEKTYNFLPEFLVSTQKTYGADLASVDFQHASEDARKTINQWVKGQTEGKIPELLASGMVDNMTKLVLVNAIYFKGNWKDKFMKEATTNAPFRLNKKDRKTVKMMYQKKKFAYGYIEDLKCRVLELPYQGEELSMVILLPDDIEDESTGLKKIEEQLTLEKLHEWTKPENLDFIEVNVSLPRFKLEESYTLNSDLARLGVQDLFNSSKADLSGMSGARDIFISKIVHKSFVEVNEEGTEAAAATAGIATFCMLMPEENFTADHPFLFFIRHNSSGSILFLGRFSSP
Turning to B1, the “fold decrease in 1CARD oligomer with SERPINB1 against without SERPINB1” value was determined as 4.18 fold and the “fold increase in 1CARD monomer with SERPINB1 against without SERPINB1” value came out at 7.48 fold.
